To fix the notation:
B1: N^ε28-[(4S)-4-carboxy-4-[[(4S)-4-carboxy-4-[[2-[2-[2-[[2-[2-[2-[[(4S)-4-carboxy-4-(17-carboxyheptadecanoylamino)butanoyl]amino]ethoxy]ethoxy]acetyl]amino]ethoxy … (peptide)
peptide: H[Aib]QGTFTSDLSKYLESKAAREFVQWLLK([γGlu-γGlu-AEEA-AEEA-γGlu-C18 diacid])T-NH2
modifications: N-terminus assumed
SMILES: CC(C)C[C@H](NC(=O)[C@H](Cc1ccc(O)cc1)NC(=O)[C@H](CCCCN)NC(=O)[C@H](CO)NC(=O)[C@H](CC(C)C)NC(=O)[C@H](CC(=O)O)NC(=O)[C@H](CO)NC(=O)[C@@H](NC(=O)[C@H](Cc1ccccc1)NC(=O)[C@@H](NC(=O)CNC(=O)[C@H](CCC(N)=O)NC(=O)C(C)(C)NC(=O)[C@@H](N)Cc1c[nH]cn1)[C@@H](C)O)[C@@H](C)O)C(=O)N[C@@H](CCC(=O)O)C(=O)N[C@@H](CO)C(=O)N[C@@H](CCCCN)C(=O)N[C@@H](C)C(=O)N[C@@H](C)C(=O)N[C@@H](CCCNC(=N)N)C(=O)N[C@@H](CCC(=O)O)C(=O)N[C@@H](Cc1ccccc1)C(=O)N[C@H](C(=O)N[C@@H](CCC(N)=O)C(=O)N[C@@H](Cc1c[nH]c2ccccc12)C(=O)N[C@@H](CC(C)C)C(=O)N[C@@H](CC(C)C)C(=O)N[C@@H](CCCCNC(=O)CC[C@H](NC(=O)CC[C@H](NC(=O)COCCOCCNC(=O)COCCOCCNC(=O)CC[C@H](NC(=O)CCCCCCCCCCCCCCCCC(=O)O)C(=O)O)C(=O)O)C(=O)O)C(=O)N[C@H](C(N)=O)[C@@H](C)O)C(C)C
B2: N^ε28-[(4S)-4-carboxy-4-[[2-[2-[2-[[2-[2-[2-[[(4S)-4-carboxy-4-[[(4S)-4-carboxy-4-(17-carboxyheptadecanoylamino)butanoyl]amino]butanoyl]amino]ethoxy]ethoxy]acet … (peptide)
peptide: H[Aib]HGTFTSDLSKYLESRRAREFVAWLLK([γGlu-AEEA-AEEA-γGlu-γGlu-C18 diacid])T-NH2
modifications: N-terminus assumed
SMILES: CC(C)C[C@H](NC(=O)[C@H](Cc1c[nH]c2ccccc12)NC(=O)[C@H](C)NC(=O)[C@@H](NC(=O)[C@H](Cc1ccccc1)NC(=O)[C@H](CCC(=O)O)NC(=O)[C@H](CCCNC(=N)N)NC(=O)[C@H](C)NC(=O)[C@H](CCCNC(=N)N)NC(=O)[C@H](CCCNC(=N)N)NC(=O)[C@H](CO)NC(=O)[C@H](CCC(=O)O)NC(=O)[C@H](CC(C)C)NC(=O)[C@H](Cc1ccc(O)cc1)NC(=O)[C@H](CCCCN)NC(=O)[C@H](CO)NC(=O)[C@H](CC(C)C)NC(=O)[C@H](CC(=O)O)NC(=O)[C@H](CO)NC(=O)[C@@H](NC(=O)[C@H](Cc1ccccc1)NC(=O)[C@@H](NC(=O)CNC(=O)[C@H](Cc1c[nH]cn1)NC(=O)C(C)(C)NC(=O)[C@@H](N)Cc1c[nH]cn1)[C@@H](C)O)[C@@H](C)O)C(C)C)C(=O)N[C@@H](CC(C)C)C(=O)N[C@@H](CCCCNC(=O)CC[C@H](NC(=O)COCCOCCNC(=O)COCCOCCNC(=O)CC[C@H](NC(=O)CC[C@H](NC(=O)CCCCCCCCCCCCCCCCC(=O)O)C(=O)O)C(=O)O)C(=O)O)C(=O)N[C@H](C(N)=O)[C@@H](C)O
B3: N^ε28-[(4S)-4-carboxy-4-[[(4S)-4-carboxy-4-[[2-[2-[2-[[2-[2-[2-[[(4S)-4-carboxy-4-(17-carboxyheptadecanoylamino)butanoyl]amino]ethoxy]ethoxy]acetyl]amino]ethoxy … (peptide)
peptide: H[Aib]QGTFTSDLSKYLDSRRAREFVQWLLK([γGlu-γGlu-AEEA-AEEA-γGlu-C18 diacid])T-NH2
modifications: N-terminus assumed
SMILES: CC(C)C[C@H](NC(=O)[C@H](Cc1ccc(O)cc1)NC(=O)[C@H](CCCCN)NC(=O)[C@H](CO)NC(=O)[C@H](CC(C)C)NC(=O)[C@H](CC(=O)O)NC(=O)[C@H](CO)NC(=O)[C@@H](NC(=O)[C@H](Cc1ccccc1)NC(=O)[C@@H](NC(=O)CNC(=O)[C@H](CCC(N)=O)NC(=O)C(C)(C)NC(=O)[C@@H](N)Cc1c[nH]cn1)[C@@H](C)O)[C@@H](C)O)C(=O)N[C@@H](CC(=O)O)C(=O)N[C@@H](CO)C(=O)N[C@@H](CCCNC(=N)N)C(=O)N[C@@H](CCCNC(=N)N)C(=O)N[C@@H](C)C(=O)N[C@@H](CCCNC(=N)N)C(=O)N[C@@H](CCC(=O)O)C(=O)N[C@@H](Cc1ccccc1)C(=O)N[C@H](C(=O)N[C@@H](CCC(N)=O)C(=O)N[C@@H](Cc1c[nH]c2ccccc12)C(=O)N[C@@H](CC(C)C)C(=O)N[C@@H](CC(C)C)C(=O)N[C@@H](CCCCNC(=O)CC[C@H](NC(=O)CC[C@H](NC(=O)COCCOCCNC(=O)COCCOCCNC(=O)CC[C@H](NC(=O)CCCCCCCCCCCCCCCCC(=O)O)C(=O)O)C(=O)O)C(=O)O)C(=O)N[C@H](C(N)=O)[C@@H](C)O)C(C)C

Numbered stars: 1 amine (or outer) side, 2 acyl side, 3 side chain; on linkers, the order of the positions; unused ones are H or OH. Square brackets hold non-standard residues; d marks the D form. Side chains are listed from the residue outwards. Ends that are not written are not given here. * marks the point of attachment. C18 diacid = O=C(O)CCCCCCCCCCCCCCCCC(=O)*; γGlu = O=C(O)[C@H](CCC(=O)[*:2])N[*:1]; Ac4c = NC1(C(=O)O)CCC1; AEEA = NCCOCCOCC(=O)O; Aib = CC(C)(N)C(=O)O

The target in the first assay is T1, human glucagon receptor (human, UniProt P47871 26-477).
T1 construct: whole, on cells; the potency assay used whole cells (clone pLJ6'-4-25); also called GlucR; hGCGR
T1 sequence (P47871 26-477): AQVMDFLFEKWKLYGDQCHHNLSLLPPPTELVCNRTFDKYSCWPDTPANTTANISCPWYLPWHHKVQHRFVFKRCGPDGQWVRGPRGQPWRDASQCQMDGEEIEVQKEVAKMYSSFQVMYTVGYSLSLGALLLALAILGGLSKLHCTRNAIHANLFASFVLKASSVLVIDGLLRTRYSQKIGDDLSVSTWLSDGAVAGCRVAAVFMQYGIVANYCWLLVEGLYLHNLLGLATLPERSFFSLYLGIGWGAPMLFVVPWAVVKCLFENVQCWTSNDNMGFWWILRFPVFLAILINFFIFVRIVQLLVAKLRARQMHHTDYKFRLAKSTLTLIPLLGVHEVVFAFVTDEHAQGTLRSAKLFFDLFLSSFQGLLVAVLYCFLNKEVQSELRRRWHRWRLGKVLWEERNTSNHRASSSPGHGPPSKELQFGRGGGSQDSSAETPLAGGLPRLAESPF
The experiment in a line: displacement of 125I-glucagon, membranes with human glucagon receptor, SPA. How it is done: The receptor binding of each compound to the human glucagon receptor was measured in a displacement binding assay. […] Each derivative was added in a series of concentrations to isolated membranes containing the human glucagon receptor and displacement of the labelled ligand is monitored. The receptor binding was reported as the concentration at which half of the labelled ligand is displaced from the receptor, the IC₅₀ value.
Regarding H[Ac4c]QGTFTSDLSKYLEERRARDFVQWLLK([Gly-Ser-Glu-Gly-Ser-γGlu-γGlu-C18 diacid])T-NH2, the IC50 was determined as 3.9 nM.
Still for that read-out and setting: next, H[Ac4c]QGTFTSDLSKYLDLKRAREFVQWLLK([Gly-Ser-Glu-Gly-Ser-γGlu-γGlu-C18 diacid])T-NH2: 3.1 nM.
Same read-out and setting: to H[Aib]QGTFTSDLSKYLDLKRAREFVQWLLK([γGlu-γGlu-AEEA-AEEA-γGlu-C18 diacid])T-NH2 belongs 4 nM; to B1, 61 nM.
Same read-out and setting: next, B2: 0.8 nM; B3: 2.1 nM.
Take H[Ac4c]HGTFTSDLSKYLESRRAQDFVQWLLK([Gly-Ser-Glu-Gly-Ser-γGlu-γGlu-C18 diacid])T-NH2: the IC50 amounted to 0.7 nM.
As to H[Aib]QGTFTSDLSKYLDLRRARDFVQWLLK([Gly-Ser-Glu-Ser-γGlu-γGlu-C18 diacid])T-NH2, the IC50 is 18.4 nM.
Same read-out and setting: next, H[Aib]HGTFTSDLSKYLESRRARDFVQWLLK([Gly-Ser-Glu-Gly-Ser-γGlu-γGlu-C18 diacid])T-NH2: 0.1 nM.

The target of the next assay is T2, human GLP-1 receptor (human, UniProt P43220 24-463).
T2 construct: whole, on cells; the potency assay used whole cells (clone FCW467-12A/KZ10-1)
The experiment in a line: displacement of 125I-GLP-1(7-36)NH2, membranes with human GLP-1R, SPA. How it is done: The receptor binding of each compound to the human GLP-1 receptor was measured in a displacement binding assay. […] Each derivative was added in a series of concentrations to isolated membranes containing the human GLP-1 receptor and displacement of the labelled ligand was monitored. The receptor binding was reported as the concentration at which half of the labelled ligand was displaced from the receptor, the IC₅₀ value.
With H[Ac4c]QGTFTSDLSKYLEERRARDFVQWLLK([Gly-Ser-Glu-Gly-Ser-γGlu-γGlu-C18 diacid])T-NH2, the IC50 is 0.2 nM.
The same measure, in the same setting: next, H[Ac4c]QGTFTSDLSKYLDLKRAREFVQWLLK([Gly-Ser-Glu-Gly-Ser-γGlu-γGlu-C18 diacid])T-NH2: 0.2 nM; H[Aib]QGTFTSDLSKYLDLKRAREFVQWLLK([γGlu-γGlu-AEEA-AEEA-γGlu-C18 diacid])T-NH2: 0.5 nM; B1: 0.2 nM.
Still for that read-out and setting: to B2 belongs 1.5 nM.
On the same count and under the same terms, next, B3: 0.3 nM.
H[Ac4c]HGTFTSDLSKYLESRRAQDFVQWLLK([Gly-Ser-Glu-Gly-Ser-γGlu-γGlu-C18 diacid])T-NH2 returned an IC50 of 2.6 nM.
Same read-out and setting: next, H[Aib]QGTFTSDLSKYLDLRRARDFVQWLLK([Gly-Ser-Glu-Ser-γGlu-γGlu-C18 diacid])T-NH2: 1.1 nM; H[Aib]HGTFTSDLSKYLESRRARDFVQWLLK([Gly-Ser-Glu-Gly-Ser-γGlu-γGlu-C18 diacid])T-NH2: 0.2 nM.

The target in the next assay is T2, human GLP-1 receptor. The experiment in a line: cell-based or functional assay.
With H[Ac4c]QGTFTSDLSKYLEERRARDFVQWLLK([Gly-Ser-Glu-Gly-Ser-γGlu-γGlu-C18 diacid])T-NH2, the “EC50 GLP-1R, CRE luciferase reporter gene assay in BHK cells” value worked out at 5.8 pM.
Still for that read-out and setting: to H[Ac4c]QGTFTSDLSKYLDLKRAREFVQWLLK([Gly-Ser-Glu-Gly-Ser-γGlu-γGlu-C18 diacid])T-NH2 belongs 44 pM.
Same read-out and setting: to H[Aib]QGTFTSDLSKYLDLKRAREFVQWLLK([γGlu-γGlu-AEEA-AEEA-γGlu-C18 diacid])T-NH2 belongs 9 pM.
The same measure, in the same setting: next, B1: 11.9 pM; B2: 19.5 pM.
As for B3, the “EC50 GLP-1R, CRE luciferase reporter gene assay in BHK cells” value was determined as 5.3 pM.
Same read-out and setting: next, H[Ac4c]HGTFTSDLSKYLESRRAQDFVQWLLK([Gly-Ser-Glu-Gly-Ser-γGlu-γGlu-C18 diacid])T-NH2: 3 pM; H[Aib]QGTFTSDLSKYLDLRRARDFVQWLLK([Gly-Ser-Glu-Ser-γGlu-γGlu-C18 diacid])T-NH2: 27 pM.
Still for that read-out and setting: next, H[Aib]HGTFTSDLSKYLESRRARDFVQWLLK([Gly-Ser-Glu-Gly-Ser-γGlu-γGlu-C18 diacid])T-NH2: 4 pM.

The next assay deals with T1, human glucagon receptor. The experiment in a line: cell-based or functional assay.
Take H[Ac4c]QGTFTSDLSKYLEERRARDFVQWLLK([Gly-Ser-Glu-Gly-Ser-γGlu-γGlu-C18 diacid])T-NH2: the “EC50 GlucR, CRE luciferase reporter gene assay in BHK cells” value (shortened to “EC50 GlucR”) came out at 113 pM.
Regarding H[Ac4c]QGTFTSDLSKYLDLKRAREFVQWLLK([Gly-Ser-Glu-Gly-Ser-γGlu-γGlu-C18 diacid])T-NH2, the “EC50 GlucR” value was determined as 8 pM.
Regarding H[Aib]QGTFTSDLSKYLDLKRAREFVQWLLK([γGlu-γGlu-AEEA-AEEA-γGlu-C18 diacid])T-NH2, the “EC50 GlucR” value is 8.7 pM.
B1: the “EC50 GlucR” value stood at 506 pM.
Same read-out and setting: to B2 belongs 2.9 pM; to B3, 6.3 pM; to H[Ac4c]HGTFTSDLSKYLESRRAQDFVQWLLK([Gly-Ser-Glu-Gly-Ser-γGlu-γGlu-C18 diacid])T-NH2, 1 pM.
Regarding H[Aib]QGTFTSDLSKYLDLRRARDFVQWLLK([Gly-Ser-Glu-Ser-γGlu-γGlu-C18 diacid])T-NH2, the “EC50 GlucR” value came to 30.5 pM.
Regarding H[Aib]HGTFTSDLSKYLESRRARDFVQWLLK([Gly-Ser-Glu-Gly-Ser-γGlu-γGlu-C18 diacid])T-NH2, the “EC50 GlucR” value was 2 pM.

The values are drawn from patent US20150374794A1 (Novo Nordisk, published 2015).
